Consider 23 molecules from patent US20130101555A1 (CYTOMX THERAPEUTICS, published 2013).

Sequences and labels used below:
B1: peptide derived from Jagged1 displayed by clone Jag-ecpX3 (peptide)
peptide: RVTCDDYYYGFGCNKFGRPA
notes: also called Jagged1-derived peptide; fragment of JAG1

In the first assay the target is T1, human Notch1 EGF-like domains 11-13 fused to the Fc domain of human IgG1 (hN111-13-hFc) (human, UniProt P46531 411-526, biotinylated with NHS-PEG-biotin (hN111-13-hFc-biot) or labeled with DyLight-488, depending on the round).
T1 construct: also called hN111-13-hFc-biot; hN111-13-hFc-Dy488; not shown: Fc domain of human IgG1 as encoded by pINFUSE-hIgG1-Fc2 (InvivoGen)
T1 sequence (P46531 411-526 limits assumed): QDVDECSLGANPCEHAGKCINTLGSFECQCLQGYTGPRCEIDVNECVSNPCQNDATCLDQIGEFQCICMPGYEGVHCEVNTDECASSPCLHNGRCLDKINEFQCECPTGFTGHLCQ
Kind of assay: bacterial display library screen, magnetic selection and FACS with labeled hN111-13-hFc. Here is the method: Following two rounds of magnetic selection, the remaining rounds of screening were performed on a Becton Dickinson FACSAria flow cytometer. In the first round of FACS, induced cells were incubated with 500 nM hN1₁₁₋₁₃-hFc-biot, 10 μM hIgG in TBS-Ca-B, washed, and incubated with fluorescent secondary label neutravidin-phycoerythrin (NAPE) (Invitrogen) at 10 nM, before sorting by flow cytometry for fluorescently labeled cells. Cells amplified from overnight growth of the first round FACS population were induced and subjected to a second round of sorting with the same labeling conditions as in the first round or, alternatively, using 50 nM hN1₁₁₋₁₃-hFc-biot. A third round of sorting was conducted as in the second round but with 100 nM hN1₁₁₋₁₃-hFc-biot and the addition of 27 nM Ypet-Mona-SH3 in the secondary labeling step. Mona-SH3 binds an epitope on the C-terminus of the display scaffold, independent of the random peptide on the N-terminus. Cells were then sorted based on the ratio of 576 nm fluorescence (i.e. NAPE binding) to 530 nm fluorescence (i.e. Ypet-Mona binding) in order to normalize for differences in scaffold display level on individual cells.
Alternatively, third round sorting was conducted by incubating induced cells with 10 nM or alternatively, 50 nM unbiotinylated hN1₁₁₋₁₃-hFc in TBS-Ca-B before washing, labeling with fluorescent secondary 20 μg/ml anti-hIgG-DyLight-488, and sorting based on 530 nm fluorescence. Third round sorting was also conducted using either 50 nM or 250 nM hN1₁₁₋₁₃-hFc that had been fluorescently labeled with DyLight-488 (Thermo Pierce) (hN1₁₁₋₁₃-hFc-Dy488), and 10 μM hIgG, with no secondary labeling.
For the molecule TVLVIPDLHYLYVDR [PHB3337], the binding result was “binds”. On the same count and under the same terms, the same measure for ACVIHFLDRISNILE [PHB3333]: “binds”; for CYPSISWLFADAPRN [PHB3485]: “binds”; for DFINSMRSHLQSSDQ [PHB3478]: “binds”. Turning to PNCIESFLSSIHDSL [PHB3480], the binding result is listed as “binds”.

With ATCYIINHWVERYII [PHB3489], the binding result is “binds”.

Consider FLNDIHRFLHWTDLM [PHB3325], for which the binding result is given as “binds”.

Regarding PLYLPEIGWMFGLPT [PHB3336], the binding result is reported as “binds”. Same read-out and setting: the same measure for FCYIAAFSAMQRQSC [PHB3334]: “binds”; for YLLRLPSLEELWGPS [PHB3488]: “binds”; for EPKCSFCSPLIVPSP [PHB3479]: “binds”. The same measure, in the same setting: the same measure for LLSSFVETMSSILTC [PHB3487]: “binds”; for CFPTVVWRELYNLYG [PHB3352]: “binds”. On to PYTFVEQVEYWLHAT [PHB3327], for which the binding result was “binds”. With IYPLDALLRHLNSLC [PHB3349], the binding result is on record as “binds”.

With NLDFYLNHLYNTLAG [PHB3476], the binding result is reported as “binds”.

As to FINNVETALDTIYNL [PHB3340], the binding result is “binds”.

Take TDNALFLETVQHYLY [PHB3482]: the binding result was “binds”. Take ELTQLLNALVDVRNC [PHB3486]: the binding result is “binds”.

In the case of ATMYAYLERLEAILS [PHB3343], the binding result was “binds”. The same measure, in the same setting: the same measure for FPLNTFDLVHELLSR [PHB3324]: “binds”.

As to SAKHLHPGRLPPMTK [PHB3341], the binding result is “binds”.

Another assay addresses T1, human Notch1 EGF-like domains 11-13 …. Kind of assay: flow cytometry of induced E. coli clones, 100 nM hN111-13-hFc-biot then 10 nM SAPE, normalized to scaffold display level. Here is the method: Individual clones were tested by flow cytometry for hN1₁₁₋₁₃-hFc binding by labeling induced cells in TBS-Ca-B with (A.) 50 nM hN1₁₁₋₁₃-hFc-biot or (B.) 100 nM […] hN1₁₁₋₁₃-hFc-biot, followed by 10 nM Streptavidin-R-phycoerythrin (SAPE). Cells were separately labeled with 27 nM Ypet-Mona to measure peptide display level. The display scaffold alone (ecpX3) was used as a negative control.
As for B1, the binding result is “binds”.
